Experimental data as given in publication doi:10.1101/2022.10.04.510906 (bioRxiv, 2022).

Target: T1, V/A-ATPase D subunit (Thermus thermophilus, UniProt O87880 1-223)
T1 sequence: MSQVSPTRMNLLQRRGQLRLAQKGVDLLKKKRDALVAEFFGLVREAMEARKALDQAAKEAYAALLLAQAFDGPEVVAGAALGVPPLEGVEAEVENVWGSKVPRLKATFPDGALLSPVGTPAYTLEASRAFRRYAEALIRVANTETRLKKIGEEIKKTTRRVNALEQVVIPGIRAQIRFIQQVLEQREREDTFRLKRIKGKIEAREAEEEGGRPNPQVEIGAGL
Test: cryo-EM structure

B1: V/A-ATPase F subunit (natural protein, Thermus thermophilus)
chain: MAVIADPETAQGFRLAGLEGYGASSAEEAQSLLETLVERGGYALVAVDEALLPDPERAVERLMRGRDLPVLLPIAGLKEAFQGHDVEGYMRELVRKTIGFDIKL
Question: Does B1 bind?
Answer: binds
